Where no end group is shown, it is not given here.

This passage reports binding result, Kd and kon results from paper PMC11514473, “The transition state for coupled folding and binding of a disordered DNA binding domain resembles the unbound state” (Nucleic Acids Research, 2024).

The target of series [1] is T1, CREB 285bZIP wild type (pseudo-WT, Cys to Ser) (human, UniProt P16220-1 285-339, C300S;C310S;C337S).
T1 sequence: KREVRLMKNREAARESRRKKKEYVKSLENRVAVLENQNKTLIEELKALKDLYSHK
Briefly: NMR; two-fold excess DNA over dimer; basic region folds to helix; 10 mM Mg2+; 10 mM MES pH 6.5, 150 mM NaCl, 10 mM MgCl2, 0.05% Tween-20, 25 C; NMR: 10 mM Tris-d11, 150 mM NaCl, 10 mM MgCl2, 1 mM NaN3, 5% D2O (NOE at 25 C). The settings on record: protein: recombinant; tags: extra N-terminal Gly after TEV cleavage; His6-GB1 removed; chain copies: 2; label: none; blunt, self-complementary, 2 copies.

Series [2] has as its target T2, CREB 285bZIP (bZIP domain of human cAMP-response element binding protein, residues 285-339, cysteines … (human)).
T2 chain: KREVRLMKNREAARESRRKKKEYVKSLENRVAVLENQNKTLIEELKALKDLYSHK
Briefly: stopped-flow urea refolding kinetics (intrinsic tyrosine fluorescence); 285bZIP in 8 M urea mixed 1:10 with buffer of lower urea concentrations; 2.2, 4.5 and 9.1 uM CREB; excitation 278 nm, 305 nm cut-off filter; 25.0 C; traces fit to a 2-state reversible 2P to P2 model; L and k1 extrapolated by straight line fits to the absence of urea; dimer to monomers. The settings on record: both partners purified.

B1: symmetric CRE DNA (NMR) (dsDNA)
DNA 1: AGATGACGTCATCT
DNA 2: AGATGACGTCATCT
Turning to B1, the binding result in series [1] is “binds”.

B2: CREB 285bZIP (bZIP domain of human cAMP-response element binding protein, residues 285-339, cysteines replaced with serines) (domain or fragment)
chain: KREVRLMKNREAARESRRKKKEYVKSLENRVAVLENQNKTLIEELKALKDLYSHK
modifications: also: homodimer
As usually defined, the Kd is the concentration at which binding is half-saturated. In general, kon refers to the second-order rate constant of association. B2: in series [2], the Kd is 11 ± 2 nM and the kon is 7.1e+06 ± 500000 M⁻¹ s⁻¹.
